The target of assay [1] is BAK (UniProt Q16611). Put plainly: FLAG co-immunoprecipitation, immunoblot. Particulars: reference: WT-FLAG-MCL-1; sites T163. On the technique in general: Immunoblotting shows a protein as a band on a membrane.
Assay [2] addresses Noxa (UniProt Q13794). Put plainly: FLAG co-immunoprecipitation, immunoblot. To be noted: reference: WT-FLAG-MCL-1; sites T163.
Assay [3] deals with Mule (preparation of Supplemental Figure 3D, not told) (UniProt Q7Z6Z7).

The term stoichiometry N denotes a count of units in the complex or per binding partner.

Turning to “Mcl-1 (from UniProt Q07820) T163A-FLAG-MCL-1”, the “binding against the reference” value in assay [1] and in assay [2] was “lost” in each case.

With “Mule (preparation of Supplemental Figure 3D, not told) (from UniProt Q7Z6Z7 1-4374) (natural protein)”, in assay [3], the stoichiometry N came to 2.

These data come from PMC9852224.
